Laboratory results published in patent US20250163162A1 (SYNTHEKINE, published 2025).
Values belong to the binder of their own block, whether it stands above or below them.

Experiments:
Experiment in all cases: cell-based or functional assay
IL10Rα/IL2Rγ receptor [1] = target: T1, IL10Rα/IL2Rγ receptor (human, UniProt Q13651 22-578; P31785 23-369)
T1 sequence (looked up) 1: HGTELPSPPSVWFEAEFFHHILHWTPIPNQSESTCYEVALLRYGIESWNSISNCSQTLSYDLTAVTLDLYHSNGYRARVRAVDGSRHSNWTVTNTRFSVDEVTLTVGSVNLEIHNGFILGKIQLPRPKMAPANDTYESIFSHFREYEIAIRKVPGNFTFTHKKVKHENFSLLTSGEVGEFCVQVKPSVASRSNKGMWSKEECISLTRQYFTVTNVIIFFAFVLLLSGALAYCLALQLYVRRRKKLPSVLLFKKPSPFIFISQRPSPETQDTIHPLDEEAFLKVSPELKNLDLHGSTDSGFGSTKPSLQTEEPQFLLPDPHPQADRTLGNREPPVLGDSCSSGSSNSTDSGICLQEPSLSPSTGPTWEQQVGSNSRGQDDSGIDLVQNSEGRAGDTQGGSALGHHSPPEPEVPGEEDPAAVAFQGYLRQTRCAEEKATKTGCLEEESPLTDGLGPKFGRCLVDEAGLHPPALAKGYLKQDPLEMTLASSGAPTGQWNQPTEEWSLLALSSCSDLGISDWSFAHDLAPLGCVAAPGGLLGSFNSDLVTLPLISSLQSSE
T1 sequence (looked up) 2: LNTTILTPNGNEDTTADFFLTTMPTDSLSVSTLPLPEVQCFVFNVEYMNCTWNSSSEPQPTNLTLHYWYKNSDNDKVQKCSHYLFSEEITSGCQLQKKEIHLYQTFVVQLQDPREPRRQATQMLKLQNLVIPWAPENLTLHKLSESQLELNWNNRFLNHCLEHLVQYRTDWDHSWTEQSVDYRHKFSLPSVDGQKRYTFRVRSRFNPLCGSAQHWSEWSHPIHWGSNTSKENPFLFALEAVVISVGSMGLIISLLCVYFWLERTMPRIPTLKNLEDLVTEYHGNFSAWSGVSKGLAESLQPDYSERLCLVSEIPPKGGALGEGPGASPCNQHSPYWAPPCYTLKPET

IL10Rα/IL2Rγ receptor [2] = target: T1, IL10Rα/IL2Rγ receptor; remark: listed apart in the source
IL10Rα/IL2Rγ receptor [3] = target: T1, IL10Rα/IL2Rγ receptor; remark: listed apart in the source
IL10Rα/IL2Rγ receptor [4] = target: T1, IL10Rα/IL2Rγ receptor; remark: listed apart in the source
IL10Rα/IL2Rγ receptor [5] = target: T1, IL10Rα/IL2Rγ receptor; remark: listed apart in the source
IL10Rα/IL2Rγ receptor [6] = target: T1, IL10Rα/IL2Rγ receptor; remark: listed apart in the source

B3: DR441(DR236-DR231) (bispecific antibody)
chain: QVQLQESGGGSVQAGGSLRLSCAASRFTYSSYCMGWFRQAPGKEREGVASIDSDGSTSYTDSVKGRFTISKDNAKNTLYLQMNSLKPEDTAMYYCALDLMSTVVPGFCGFLLSAGMDYWGKGTQVTVSSGGGSQVQLQESGGGSVQAGGSLRLSCTASGFTFDDREMNWYRQAPGNECELVSTISSDGSTYYADSVKGRFTISQDNAKNTVYLQMDSVKPEDTAVYYCAADFMIAIQAPGAGCWGQGTQVTVSSASHHHHHH
pSTAT3 MFI, CD4 T cells, 0.0001 nM (unstimulated 1887) (IL10Rα/IL2Rγ receptor [2]): 1810 MFI | pSTAT3 MFI, CD4 T cells, 0.001 nM (unstimulated 1887) (IL10Rα/IL2Rγ receptor [2]): 1830 MFI | pSTAT3 MFI, CD4 T cells, 0.01 nM (unstimulated 1887) (IL10Rα/IL2Rγ receptor [2]): 1880 MFI | pSTAT3 MFI, CD4 T cells, 0.1 nM (unstimulated 1887) (IL10Rα/IL2Rγ receptor [2]): 2240 MFI | pSTAT3 MFI, CD4 T cells, 1 nM (unstimulated 1887) (IL10Rα/IL2Rγ receptor [2]): 4560 MFI | pSTAT3 MFI, CD4 T cells, 10 nM (unstimulated 1887) (IL10Rα/IL2Rγ receptor [2]): 6760 MFI | pSTAT3 MFI, CD4 T cells, 100 nM (unstimulated 1887) (IL10Rα/IL2Rγ receptor [2]): 6350 MFI | pSTAT3 MFI, B cells, 100 nM (unstimulated 1045) (IL10Rα/IL2Rγ receptor [1]): 1280 MFI | pSTAT3 MFI, CD4+ T cells, 100 nM (unstimulated 1778) (IL10Rα/IL2Rγ receptor [1]): 5760 MFI | pSTAT3 MFI, CD8+ T cells, 100 nM (unstimulated 1288) (IL10Rα/IL2Rγ receptor [1]): 3940 MFI | pSTAT3 MFI, Monocytes, 100 nM (unstimulated 1787) (IL10Rα/IL2Rγ receptor [1]): 2130 MFI | pSTAT3 MFI, NK cells, 100 nM (unstimulated 1149) (IL10Rα/IL2Rγ receptor [1]): 1660 MFI | pSTAT3 MFI, NK cells, 0.0001 nM (unstimulated 1315) (IL10Rα/IL2Rγ receptor [3]): 1250 MFI | pSTAT3 MFI, NK cells, 0.001 nM (unstimulated 1315) (IL10Rα/IL2Rγ receptor [3]): 1260 MFI | pSTAT3 MFI, NK cells, 0.01 nM (unstimulated 1315) (IL10Rα/IL2Rγ receptor [3]): 1270 MFI | pSTAT3 MFI, NK cells, 0.1 nM (unstimulated 1315) (IL10Rα/IL2Rγ receptor [3]): 1270 MFI | pSTAT3 MFI, NK cells, 1 nM (unstimulated 1315) (IL10Rα/IL2Rγ receptor [3]): 1440 MFI | pSTAT3 MFI, NK cells, 10 nM (unstimulated 1315) (IL10Rα/IL2Rγ receptor [3]): 1800 MFI | pSTAT3 MFI, NK cells, 100 nM (unstimulated 1315) (IL10Rα/IL2Rγ receptor [3]): 1770 MFI | pSTAT3 MFI, B cells, 0.0001 nM (unstimulated 1193.5) (IL10Rα/IL2Rγ receptor [4]): 1120 MFI | pSTAT3 MFI, B cells, 0.001 nM (unstimulated 1193.5) (IL10Rα/IL2Rγ receptor [4]): 1130 MFI | pSTAT3 MFI, B cells, 0.01 nM (unstimulated 1193.5) (IL10Rα/IL2Rγ receptor [4]): 1130 MFI | pSTAT3 MFI, B cells, 0.1 nM (unstimulated 1193.5) (IL10Rα/IL2Rγ receptor [4]): 1120 MFI | pSTAT3 MFI, B cells, 1 nM (unstimulated 1193.5) (IL10Rα/IL2Rγ receptor [4]): 1220 MFI | pSTAT3 MFI, B cells, 10 nM (unstimulated 1193.5) (IL10Rα/IL2Rγ receptor [4]): 1540 MFI | pSTAT3 MFI, B cells, 100 nM (unstimulated 1193.5) (IL10Rα/IL2Rγ receptor [4]): 1470 MFI | pSTAT3 MFI, Monocytes, 0.0001 nM (unstimulated 2116) (IL10Rα/IL2Rγ receptor [5]): 2030 MFI | pSTAT3 MFI, Monocytes, 0.001 nM (unstimulated 2116) (IL10Rα/IL2Rγ receptor [5]): 2040 MFI | pSTAT3 MFI, Monocytes, 0.01 nM (unstimulated 2116) (IL10Rα/IL2Rγ receptor [5]): 2030 MFI | pSTAT3 MFI, Monocytes, 0.1 nM (unstimulated 2116) (IL10Rα/IL2Rγ receptor [5]): 2010 MFI | pSTAT3 MFI, Monocytes, 1 nM (unstimulated 2116) (IL10Rα/IL2Rγ receptor [5]): 2060 MFI | pSTAT3 MFI, Monocytes, 10 nM (unstimulated 2116) (IL10Rα/IL2Rγ receptor [5]): 2340 MFI | pSTAT3 MFI, Monocytes, 100 nM (unstimulated 2116) (IL10Rα/IL2Rγ receptor [5]): 2290 MFI | pSTAT3 MFI, CD8 T cells, 0.0001 nM (unstimulated 1446) (IL10Rα/IL2Rγ receptor [6]): 1380 MFI | pSTAT3 MFI, CD8 T cells, 0.001 nM (unstimulated 1446) (IL10Rα/IL2Rγ receptor [6]): 1410 MFI | pSTAT3 MFI, CD8 T cells, 0.01 nM (unstimulated 1446) (IL10Rα/IL2Rγ receptor [6]): 1430 MFI | pSTAT3 MFI, CD8 T cells, 0.1 nM (unstimulated 1446) (IL10Rα/IL2Rγ receptor [6]): 1610 MFI | pSTAT3 MFI, CD8 T cells, 1 nM (unstimulated 1446) (IL10Rα/IL2Rγ receptor [6]): 3060 MFI | pSTAT3 MFI, CD8 T cells, 10 nM (unstimulated 1446) (IL10Rα/IL2Rγ receptor [6]): 4470 MFI | pSTAT3 MFI, CD8 T cells, 100 nM (unstimulated 1446) (IL10Rα/IL2Rγ receptor [6]): 4260 MFI

B5: DR438(DR235-DR234) (bispecific antibody)
chain: QVQLQESGGGSVQAGGSLRLSCAASRYLYSIDYMAWFRQSPGKEREPVAVIYTASGATFYPDSVKGRFTISQDNAKMTVYLQMNSLKSEDTAMYYCAAVRKTDSYLFDAQSFTYWGQGTQVTVSSGGGSQVQLQESGGGSVQAGGSLRLSCVASGYTFSSYCMGWFRQAPGKEREGVAALGGGSTYYADSVKGRFTISQDNAKNTLYLQMNSLKPEDTAMYYCAAAWVACLEFGGSWYDLARYKHWGQGTQVTVSSASHHHHHH
pSTAT3 MFI, B cells, 100 nM (unstimulated 1045) (IL10Rα/IL2Rγ receptor [1]): 1050 MFI | pSTAT3 MFI, CD4+ T cells, 100 nM (unstimulated 1778) (IL10Rα/IL2Rγ receptor [1]): 2780 MFI | pSTAT3 MFI, CD8+ T cells, 100 nM (unstimulated 1288) (IL10Rα/IL2Rγ receptor [1]): 1830 MFI | pSTAT3 MFI, Monocytes, 100 nM (unstimulated 1787) (IL10Rα/IL2Rγ receptor [1]): 1810 MFI | pSTAT3 MFI, NK cells, 100 nM (unstimulated 1149) (IL10Rα/IL2Rγ receptor [1]): 1170 MFI

The next lines start with the values.

pSTAT3 MFI, B cells, 100 nM (unstimulated 1045) (IL10Rα/IL2Rγ receptor [1]): 1070 MFI | pSTAT3 MFI, CD4+ T cells, 100 nM (unstimulated 1778) (IL10Rα/IL2Rγ receptor [1]): 3700 MFI | pSTAT3 MFI, CD8+ T cells, 100 nM (unstimulated 1288) (IL10Rα/IL2Rγ receptor [1]): 2410 MFI | pSTAT3 MFI, Monocytes, 100 nM (unstimulated 1787) (IL10Rα/IL2Rγ receptor [1]): 1830 MFI | pSTAT3 MFI, NK cells, 100 nM (unstimulated 1149) (IL10Rα/IL2Rγ receptor [1]): 1270 MFI
B1: DR444(DR236-DR234) (bispecific antibody)
chain: QVQLQESGGGSVQAGGSLRLSCAASRFTYSSYCMGWFRQAPGKEREGVASIDSDGSTSYTDSVKGRFTISKDNAKNTLYLQMNSLKPEDTAMYYCALDLMSTVVPGFCGFLLSAGMDYWGKGTQVTVSSGGGSQVQLQESGGGSVQAGGSLRLSCVASGYTFSSYCMGWFRQAPGKEREGVAALGGGSTYYADSVKGRFTISQDNAKNTLYLQMNSLKPEDTAMYYCAAAWVACLEFGGSWYDLARYKHWGQGTQVTVSSASHHHHHH

pSTAT3 MFI, B cells, 100 nM (unstimulated 1045) (IL10Rα/IL2Rγ receptor [1]): 1030 MFI | pSTAT3 MFI, CD4+ T cells, 100 nM (unstimulated 1778) (IL10Rα/IL2Rγ receptor [1]): 3770 MFI | pSTAT3 MFI, CD8+ T cells, 100 nM (unstimulated 1288) (IL10Rα/IL2Rγ receptor [1]): 2460 MFI | pSTAT3 MFI, Monocytes, 100 nM (unstimulated 1787) (IL10Rα/IL2Rγ receptor [1]): 2320 MFI | pSTAT3 MFI, NK cells, 100 nM (unstimulated 1149) (IL10Rα/IL2Rγ receptor [1]): 1230 MFI
B2: DR474(DR241-DR234) (bispecific antibody)
chain: QVQLQESGGGSVQAGGSLRLSCAASGYSNCSYDMTWYRQAPGKEREFVSAIHSDGSTRYADSVKGRFFISQDNAKNTVYLQMNSLKPEDTAMYYCKTDPLHCRAHGGSWYSVRANYWGQGTQVTVSSGGGSQVQLQESGGGSVQAGGSLRLSCVASGYTFSSYCMGWFRQAPGKEREGVAALGGGSTYYADSVKGRFTISQDNAKNTLYLQMNSLKPEDTAMYYCAAAWVACLEFGGSWYDLARYKHWGQGTQVTVSSASHHHHHH

pSTAT3 MFI, B cells, 100 nM (unstimulated 1045) (IL10Rα/IL2Rγ receptor [1]): 1090 MFI | pSTAT3 MFI, CD4+ T cells, 100 nM (unstimulated 1778) (IL10Rα/IL2Rγ receptor [1]): 2700 MFI | pSTAT3 MFI, CD8+ T cells, 100 nM (unstimulated 1288) (IL10Rα/IL2Rγ receptor [1]): 1880 MFI | pSTAT3 MFI, Monocytes, 100 nM (unstimulated 1787) (IL10Rα/IL2Rγ receptor [1]): 1880 MFI | pSTAT3 MFI, NK cells, 100 nM (unstimulated 1149) (IL10Rα/IL2Rγ receptor [1]): 1250 MFI
B4: DR449(DR237-DR233) (bispecific antibody)
chain: QVQLQESGGGSVQAGGSLRLSCAASGYTYSMYCMGWFRQAPGKEREGVAQINSDGSTSYADSVKGRFTISKDNAKNTLYLQMNSLKPEDTAMYYCAADSRVYGGSWYERLCGPYTYEYNYWGQGTQVTVSSGGGSQVQLQESGGGSVQAGGSLRLSCTASGFTFDDSDMGWYRQAPGNECELVSTISSDGSTYYADSVKGRFTISQDNAKNTVYLQMNSLKPEDTAVYYCAAEPRGYYSNYGGRRECNYWGQGTQVTVSSASHHHHHH
